{"source": "patent US9383360B2", "about": "“Compositions and methods relating to lyme disease” (The United States of America, as represented by the …, priority 2012, dated 2016)", "molecules": {"B1": {"name": "BbHtrA: Recombinant wild type B. burgdorferi HtrA serine protease, mature protein amino acids 38-474, expressed in E. coli (SEQ ID NO:1, 9) (protein, listed as Borrelia burgdorferi)", "chain": "EEKDNTVRALQDSFREVSKKILPSSVEVHATGVIKQSFPIPFFFFDMPEFDSERKSNWAGSGVIIGRDSQKKSLFYVVTNSHVVDKATELEVVSYDKKKHKAKLIGKDEKKDIALISFESDDATIKVADLGDSDKLEIGDWVMAVGSPFQFSFTVTAGIVSGLQRSANPNLQSRNLFIQTDAAINRGNSGGPLVNIKGEVIGINAWIASNSGGNIGLGFAIPVNNIKSTVDFFLKGKKIESAWLGISFYPLKTRDSEVLKSLGVESNDVSAAIIASLYPGSPAVKSGLRAGDIIMKVNGVSMSVFQDVTSYISDFYAGEKVNVEILRGNVKKNIEIVLAVRPKDKELSSSKMLPGFVVYPLVEDIKAQLNLRNWIKGVVVDYIDKNLASNIKMKSGDVILSVNSKSVSNLREFYDALEVGKNTYKILRGNDSFKITF"}}, "key": {"Versican": {"target": "Versican (Homo sapiens, UniProt P13611)", "assay": "BbHtrA proteolysis assay, versican substrate", "format": "biochemical", "details": "SDS-PAGE, FIG. 5", "protocol": "(§1) For proteolysis assays described in Examples herein, purified protein substrates (200-600 nM) and proteases (100-150 nM) were diluted in assay buffer (50 mM HEPES, pH 7.4, 5 mM CaCl2) and incubated overnight at 37° C. Samples were boiled for 4 minutes to inactivate the proteases. Proteoglycans were deglycosylated by overnight incubation at 37° C. with 0.01 U chondroitinase ABC (Seikagaku). Reactions were stopped by the addition of SDS/PAGE sample buffer, boiled for 4 minutes, and electrophoresed on pre-cast Tris-glycine gels (BioRad). Reaction products were visualized by silver staining.\n(§2) Purified proteins were incubated with BbHtrA or BbHtrA^S226A as described herein. HtrA (also known as DegP) proteases belong to the family of serine proteases which contain a highly reactive serine residue in their active site. This serine (Ser210 in DegP) is part of the canonical His-Ser-Asp catalytic triad and mutation of the catalytic serine abolishes proteolytic activity (Skorko-Glonek et al., 1995). In BbHtrA, residues His119, Ser226 and Asp149 form the catalytic triad and mutation of serine 226 to alanine abolished proteolytic activity as expected (FIG. 5).\n(§3) Reaction products were separated by SDS-PAGE and silver stained. Native collagen II and recombinant tenascin C were not degraded by BbHtrA indicating selectivity for proteoglycans, E-cadherin and fibronectin. […]"}, "Neurocan": {"target": "Neurocan (Homo sapiens, UniProt O14594)", "assay": "BbHtrA proteolysis assay, neurocan substrate", "format": "biochemical", "details": "SDS-PAGE, FIG. 5", "protocol": "as §1, §2, §3"}, "[1]": {"test_system": "chondrocyte aggregate cultures", "assay": "Chondrocyte cytokine induction assay (Proteome Profiler Cytokine Arrays)", "format": "cell-based, human", "details": "for Cytokines released by chondrocytes in response: LPS, medium alone", "from_the_text": "Chondrocyte aggregate cultures are used which form an extensive extracellular matrix with components characteristic of articular cartilage including aggrecan and type II collagen as described in Welter, J. et al, BioTechniques, 2007, 42(6):732-737; and Solchaga, L. A. et al., Chondrogenic Differentiation of Bone Marrow-Derived Mesenchymal Stem Cells: Tips and Tricks, 2011, 698:253-278.\nTo form the chondrocyte aggregate cultures, lx10^6 human mesenchymal stem cells (passage one, Lonza, catalog #PT-2501) were plated in a T150 flask (Corning) and cultured in growth media: mesenchymal stem cell basal media (MSCBM, Lonza, #PT-3238), mesenchymal growth supplements (SingleQuots, Lonza, #PT-4105), and 5 ng/ml recombinant human […] (Shenandoah Biotechnology). When confluent, cells were trypsin-released (0.5% trypsin EDTA, Gibco), expanded to two T150 flasks and fed with growth media every three days. When confluent, cells were harvested, resuspended in fresh growth media containing 5% DMSO and aliquots of 1×10^6 cells were cryopreserved in liquid nitrogen.\nHuman mesenchymal stem cells were used to promote chondrogenesis and chondrocyte aggregate formation for use in these studies. Two vials of passage three cryopreserved cells were thawed, plated in growth media in two T150 flasks and then expanded to six T150 flasks as above. Cells were harvested (0.5% trypsin EDTA, Gibco), pooled, enumerated and induced to chondrogenic differentiation as follows. Cells were resuspended in defined chondrocyte differentiation media: high glucose DMEM (Gibco), 50 μg/ml ascorbic acid-2-phosphate (Sigma), 39.3 ng/ml dexamethasone (Sigma), […] L-proline (Sigma), ITS+Premix (BD Biosciences), 10 ng/ml transforming growth factor β-3 (Shenandoah Biotechnology) and 30 μg/ml gentamicin sulfate+15 ng/ml amphotericin-B (GA-1000, Lonza, #PT-4504E). High density aggregates were obtained by plating, on average, 3×10^5 cells per well in a conical bottom 96 well plate (Thermo Scientific), pelleting by centrifugation (5 minutes at 600 g), and incubation at 37° C. and 5% CO2. Pellets formed coherent spherical aggregates by day two of culture. After seven days, wide bore tips were used to transfer aggregates to V-bottom 96 well plates (Corning). Aggregates were maintained in differentiation media at 37° C. and 5% CO2 for 3-5 weeks and fed every two days until experimentation.\nFor chondrocyte cytokine induction assays, 24 hours prior to experimentation, dexamethasone containing media was removed, aggregates were rinsed with DPBS (Gibco) and dexamethasone-free differentiation media was added. For experimentation, aggregates were transferred to 24 well plates (24 aggregates per condition), spent media was removed and fresh warmed dexamethasone-free media containing samples was added. Aggregates were then incubated at 37° C. and 5% CO2 for two days.\nRecombinant BbHtrA or BbHtrA^S226A was added to culture medium and incubated with chondrocyte aggregate cultures. BbHtrA and BbHtrA^S226A were purified using an E. coli system and was expected to contain endotoxin which would have a stimulatory effect on the chondrocytes. To control for endotoxin contamination (lipopolysaccharide, LPS), an endotoxin removal kit (Noragen) was used to remove the bulk of LPS from recombinant BbHtrAs. The relative toxicity of the amount remaining in the BbHtrA and BbHtrA^S226A samples was determined by a chromogenic Limulus Amoebocyte Lysate (LAL) method (Lonza, Walkersville, Md.). Prior to addition to aggregates, LPS (44 ng, 200 EU), BbHtrA^WT (20 μg, 27.9 EU LPS) and BbHtrA^S226A ([…], 1.99 EU LPS) were incubated in 1 mg/ml polymyxin B sulfate (Sigma) on ice for 30 min with occasional mixing. Warmed dexamethasone-free medium was then added to each test condition to a final volume of 1 ml. Control aggregates were maintained in untreated medium also containing polymyxin B sulfate. The final concentration for all test conditions was 60 μg/ml polymyxin B sulfate. […]"}, "Tenascin C": {"target": "Tenascin C (Homo sapiens, UniProt P24821)", "sequence (P24821 23-2201)": "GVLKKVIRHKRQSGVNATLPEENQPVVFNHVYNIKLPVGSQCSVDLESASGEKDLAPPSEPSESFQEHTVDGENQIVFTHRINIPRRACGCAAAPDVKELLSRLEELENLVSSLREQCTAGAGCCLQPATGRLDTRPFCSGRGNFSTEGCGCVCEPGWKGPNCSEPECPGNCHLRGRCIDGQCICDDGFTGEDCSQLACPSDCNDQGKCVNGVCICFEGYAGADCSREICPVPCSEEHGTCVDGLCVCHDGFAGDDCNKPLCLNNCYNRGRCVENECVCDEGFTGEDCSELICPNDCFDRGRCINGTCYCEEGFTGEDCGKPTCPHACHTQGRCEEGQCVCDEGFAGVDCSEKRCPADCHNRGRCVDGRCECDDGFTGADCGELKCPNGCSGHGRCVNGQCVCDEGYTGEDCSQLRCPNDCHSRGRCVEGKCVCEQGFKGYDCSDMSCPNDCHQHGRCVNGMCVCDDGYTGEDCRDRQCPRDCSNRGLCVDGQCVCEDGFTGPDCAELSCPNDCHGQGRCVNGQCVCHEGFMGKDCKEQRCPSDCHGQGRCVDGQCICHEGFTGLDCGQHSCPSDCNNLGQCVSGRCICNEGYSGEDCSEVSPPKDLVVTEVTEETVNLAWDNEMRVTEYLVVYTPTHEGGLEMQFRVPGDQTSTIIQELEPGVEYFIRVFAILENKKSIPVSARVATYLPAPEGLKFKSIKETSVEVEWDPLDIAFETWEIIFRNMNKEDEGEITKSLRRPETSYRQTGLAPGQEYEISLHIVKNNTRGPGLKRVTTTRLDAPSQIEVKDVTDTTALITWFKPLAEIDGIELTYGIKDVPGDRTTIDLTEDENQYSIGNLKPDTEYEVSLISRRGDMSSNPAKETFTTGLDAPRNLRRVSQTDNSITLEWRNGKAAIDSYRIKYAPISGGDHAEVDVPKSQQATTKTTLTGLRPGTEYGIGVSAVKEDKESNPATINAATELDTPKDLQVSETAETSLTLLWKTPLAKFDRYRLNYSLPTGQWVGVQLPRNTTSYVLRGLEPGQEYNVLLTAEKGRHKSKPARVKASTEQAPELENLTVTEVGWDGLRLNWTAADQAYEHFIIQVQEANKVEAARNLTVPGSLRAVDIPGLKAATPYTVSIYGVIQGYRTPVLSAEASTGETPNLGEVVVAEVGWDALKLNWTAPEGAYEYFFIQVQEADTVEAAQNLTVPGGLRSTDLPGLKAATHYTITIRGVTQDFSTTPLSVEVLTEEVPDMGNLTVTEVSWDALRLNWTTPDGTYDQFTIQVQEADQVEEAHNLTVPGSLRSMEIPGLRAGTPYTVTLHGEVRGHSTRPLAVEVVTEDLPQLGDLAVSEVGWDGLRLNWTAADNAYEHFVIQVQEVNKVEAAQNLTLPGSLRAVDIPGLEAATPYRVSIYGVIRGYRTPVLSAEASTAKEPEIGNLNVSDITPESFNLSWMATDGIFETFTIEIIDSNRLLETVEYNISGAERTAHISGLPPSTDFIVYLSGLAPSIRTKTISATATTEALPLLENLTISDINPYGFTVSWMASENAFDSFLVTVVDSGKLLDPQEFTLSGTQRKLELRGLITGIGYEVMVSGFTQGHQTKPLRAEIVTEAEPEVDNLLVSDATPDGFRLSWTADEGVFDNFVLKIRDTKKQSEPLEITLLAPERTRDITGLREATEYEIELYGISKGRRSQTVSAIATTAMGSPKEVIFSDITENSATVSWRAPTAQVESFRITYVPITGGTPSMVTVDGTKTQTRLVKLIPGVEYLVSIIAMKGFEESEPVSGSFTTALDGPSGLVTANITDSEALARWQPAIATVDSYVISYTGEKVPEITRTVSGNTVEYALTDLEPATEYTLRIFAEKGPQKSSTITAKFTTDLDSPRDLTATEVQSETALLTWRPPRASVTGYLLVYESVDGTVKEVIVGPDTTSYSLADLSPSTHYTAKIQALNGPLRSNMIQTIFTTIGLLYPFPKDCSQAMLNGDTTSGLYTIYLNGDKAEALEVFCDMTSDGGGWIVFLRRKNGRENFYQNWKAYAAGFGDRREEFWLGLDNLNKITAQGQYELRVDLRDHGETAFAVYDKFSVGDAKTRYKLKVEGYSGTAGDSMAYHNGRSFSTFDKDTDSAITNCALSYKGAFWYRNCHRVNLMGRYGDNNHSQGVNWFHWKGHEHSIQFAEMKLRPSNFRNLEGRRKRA", "assay": "BbHtrA proteolysis assay, tenascin C substrate", "format": "biochemical", "details": "SDS-PAGE, silver stain", "protocol": "as §1, §2, §3"}, "Decorin": {"test_system": "Decorin", "assay": "BbHtrA proteolysis assay, decorin substrate", "format": "biochemical, bovine, human", "details": "SDS-PAGE, FIG. 5", "protocol": "as §1, §2, §3"}, "Aggrecan [2]": {"test_system": "Aggrecan", "assay": "BbHtrA proteolysis assay, aggrecan substrate", "format": "biochemical, bovine, human", "details": "SDS-PAGE", "protocol": "as §1\n(§4) BbHtrA cleaved recombinant human aggrecan (G1-IGD-G2 domains) within the IGD (FIG. 4A). Cleavage of recombinant aggrecan generated three high molecular weight proteolytic fragments which migrated at ˜110 kd, ˜60 kd and ˜50 kd.\n(§5) BbHtrA also degraded native, fully glycosylated aggrecan (FIG. 4B, lane 5). Again, this degradation required BbHtrA catalytic activity (FIG. 4B, lane 6). The BbHtrA-generated aggrecan fragments appear to be a doublet, unlike those generated by HtrA1.\nas §2\n(§6) Reaction products were separated by SDS-PAGE and silver stained. Native collagen II and recombinant tenascin C were not degraded by BbHtrA indicating selectivity for proteoglycans, E-cadherin and fibronectin. FIG. 5 is an image of SDS-PAGE analysis showing that BbHtrA degrades aggrecan, neurocan, versican, brevican, biglycan, decorin, E-cadherin, and casein."}, "Aggrecan [3]": {"target": "T1, Aggrecan (Bos taurus, UniProt P13608)", "T1 construct": "recombinant human aggrecan (G1-IGD-G2 domains)", "T1 sequence (P13608 17-2364)": "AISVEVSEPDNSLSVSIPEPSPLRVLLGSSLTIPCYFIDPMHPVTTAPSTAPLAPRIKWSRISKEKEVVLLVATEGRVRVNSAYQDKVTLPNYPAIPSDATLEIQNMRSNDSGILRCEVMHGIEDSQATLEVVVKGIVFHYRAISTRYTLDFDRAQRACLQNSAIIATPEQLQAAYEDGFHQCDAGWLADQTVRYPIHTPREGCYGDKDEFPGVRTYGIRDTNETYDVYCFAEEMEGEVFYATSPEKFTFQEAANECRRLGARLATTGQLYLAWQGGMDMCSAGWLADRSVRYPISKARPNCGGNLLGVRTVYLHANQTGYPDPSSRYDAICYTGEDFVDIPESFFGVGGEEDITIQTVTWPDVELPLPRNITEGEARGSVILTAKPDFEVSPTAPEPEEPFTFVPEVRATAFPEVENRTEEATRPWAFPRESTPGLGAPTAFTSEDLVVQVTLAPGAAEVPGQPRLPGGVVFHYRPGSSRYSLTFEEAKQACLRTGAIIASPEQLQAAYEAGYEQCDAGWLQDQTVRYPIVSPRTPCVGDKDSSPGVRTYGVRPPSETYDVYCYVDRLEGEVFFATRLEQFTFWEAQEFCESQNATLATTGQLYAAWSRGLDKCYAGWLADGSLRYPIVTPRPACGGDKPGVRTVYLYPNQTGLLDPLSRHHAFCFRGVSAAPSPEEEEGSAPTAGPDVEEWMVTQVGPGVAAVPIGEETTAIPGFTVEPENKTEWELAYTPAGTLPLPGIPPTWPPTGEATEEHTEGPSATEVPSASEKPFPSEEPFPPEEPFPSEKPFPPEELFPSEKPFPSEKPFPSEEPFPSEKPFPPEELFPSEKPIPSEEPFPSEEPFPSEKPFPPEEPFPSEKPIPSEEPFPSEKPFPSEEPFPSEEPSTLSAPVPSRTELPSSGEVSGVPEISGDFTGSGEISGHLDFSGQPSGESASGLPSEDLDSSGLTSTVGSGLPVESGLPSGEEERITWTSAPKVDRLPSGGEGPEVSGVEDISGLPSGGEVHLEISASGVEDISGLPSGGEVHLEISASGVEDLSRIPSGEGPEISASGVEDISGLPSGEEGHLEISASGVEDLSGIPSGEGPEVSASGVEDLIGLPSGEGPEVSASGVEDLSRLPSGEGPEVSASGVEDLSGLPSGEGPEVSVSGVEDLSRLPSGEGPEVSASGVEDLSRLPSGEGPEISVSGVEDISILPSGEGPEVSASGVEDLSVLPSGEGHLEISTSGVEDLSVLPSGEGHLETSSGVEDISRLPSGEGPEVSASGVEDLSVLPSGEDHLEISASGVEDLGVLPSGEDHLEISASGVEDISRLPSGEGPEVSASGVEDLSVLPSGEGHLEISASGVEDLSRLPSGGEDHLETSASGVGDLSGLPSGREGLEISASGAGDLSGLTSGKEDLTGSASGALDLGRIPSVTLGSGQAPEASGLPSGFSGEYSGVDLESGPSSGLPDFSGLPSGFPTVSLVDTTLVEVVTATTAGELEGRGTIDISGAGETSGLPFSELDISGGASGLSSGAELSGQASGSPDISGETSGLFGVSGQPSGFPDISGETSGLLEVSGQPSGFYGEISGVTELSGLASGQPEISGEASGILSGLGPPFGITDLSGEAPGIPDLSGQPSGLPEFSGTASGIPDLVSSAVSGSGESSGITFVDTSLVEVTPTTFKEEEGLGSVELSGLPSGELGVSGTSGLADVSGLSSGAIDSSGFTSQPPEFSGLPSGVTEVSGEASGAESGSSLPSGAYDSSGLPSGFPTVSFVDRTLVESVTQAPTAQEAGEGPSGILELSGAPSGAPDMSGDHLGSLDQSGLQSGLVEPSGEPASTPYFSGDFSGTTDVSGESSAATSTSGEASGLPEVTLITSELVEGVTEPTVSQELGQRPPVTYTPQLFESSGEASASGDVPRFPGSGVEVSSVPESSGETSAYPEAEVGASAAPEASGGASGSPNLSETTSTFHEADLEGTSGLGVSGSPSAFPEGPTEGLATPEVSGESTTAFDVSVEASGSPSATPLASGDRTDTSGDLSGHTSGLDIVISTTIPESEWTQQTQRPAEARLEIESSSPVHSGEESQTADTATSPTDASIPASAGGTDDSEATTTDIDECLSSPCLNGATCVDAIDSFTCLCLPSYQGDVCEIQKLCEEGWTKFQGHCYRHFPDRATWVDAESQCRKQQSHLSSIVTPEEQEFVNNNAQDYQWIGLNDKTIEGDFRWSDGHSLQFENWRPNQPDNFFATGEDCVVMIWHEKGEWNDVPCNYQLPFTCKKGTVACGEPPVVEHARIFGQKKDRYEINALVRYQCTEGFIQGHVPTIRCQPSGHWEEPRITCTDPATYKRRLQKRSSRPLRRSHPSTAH", "assay": "BbHtrA proteolysis assay, aggrecan substrate", "format": "biochemical, bovine, human", "details": "native bovine aggrecan, SDS-PAGE, FIG. 4B", "protocol": "as §1, §4, §5, §2, §6"}, "[4]": {"details": "spent medium of chondrocyte aggregates after 48 hours, cytokine array, background subtracted"}}, "data": [{"molecule": "B1", "values": [{"measurement": "Degradation of versican", "setting": "Versican", "result": "degrades"}, {"measurement": "Degradation of neurocan", "setting": "Neurocan", "result": "degrades"}, {"measurement": "Cytokines released by chondrocytes in response", "setting": "[1]; additional experiments, FIG. 10: BbHtrA^WT, BbHtrA^S226A", "result": "CCL5, CCL2, CXCL1, CCL1, sICAM-1, IL-6 and IL-8"}, {"measurement": "Cytokines released by chondrocytes in response", "setting": "[1]; initial experiments, FIG. 9A: BbHtrA, heat denatured BbHtrA", "result": "CXCL1, CCL1, sICAM-1, IL-6, IL-8 and CCL2"}, {"measurement": "GROα/CXCL1 pixel density, Mean", "setting": "[1]; [4]", "result": 1.349}, {"measurement": "I-309/CCL1 pixel density, Mean", "setting": "[1]; [4]", "result": 0.535}, {"measurement": "IL-6 pixel density, Mean", "setting": "[1]; [4]", "result": 0.627}, {"measurement": "IL-8 pixel density, Mean", "setting": "[1]; [4]", "result": 1.581}, {"measurement": "MCP-1/CCL2 pixel density, Mean", "setting": "[1]; [4]", "result": 0.452}, {"measurement": "RANTES/CCL5 pixel density, Mean", "setting": "[1]; [4]", "result": 0.736}, {"measurement": "sICAM-1/CD54 pixel density, Mean", "setting": "[1]; [4]", "result": 0.890}, {"measurement": "Degradation of recombinant tenascin C", "setting": "Tenascin C", "result": "not degraded"}, {"measurement": "Degradation of decorin", "setting": "Decorin", "result": "degrades"}, {"measurement": "Degradation of aggrecan", "setting": "Aggrecan [2]; FIG. 5", "result": "degrades"}, {"measurement": "Cleavage of recombinant human aggrecan (G1-IGD-G2 domains) within the IGD", "setting": "Aggrecan [2]; silver stain, FIG. 4A", "result": "cleaved"}, {"measurement": "Degradation of native, fully glycosylated aggrecan", "setting": "Aggrecan [3]", "result": "degraded"}]}]}
